This is an account of results in patent publication US20170306017A1 (VACCINEX, published 2017).

One test addresses T1, human CD100-Fc (human, UniProt Q92854 22-734, limits assumed).
T1 sequence: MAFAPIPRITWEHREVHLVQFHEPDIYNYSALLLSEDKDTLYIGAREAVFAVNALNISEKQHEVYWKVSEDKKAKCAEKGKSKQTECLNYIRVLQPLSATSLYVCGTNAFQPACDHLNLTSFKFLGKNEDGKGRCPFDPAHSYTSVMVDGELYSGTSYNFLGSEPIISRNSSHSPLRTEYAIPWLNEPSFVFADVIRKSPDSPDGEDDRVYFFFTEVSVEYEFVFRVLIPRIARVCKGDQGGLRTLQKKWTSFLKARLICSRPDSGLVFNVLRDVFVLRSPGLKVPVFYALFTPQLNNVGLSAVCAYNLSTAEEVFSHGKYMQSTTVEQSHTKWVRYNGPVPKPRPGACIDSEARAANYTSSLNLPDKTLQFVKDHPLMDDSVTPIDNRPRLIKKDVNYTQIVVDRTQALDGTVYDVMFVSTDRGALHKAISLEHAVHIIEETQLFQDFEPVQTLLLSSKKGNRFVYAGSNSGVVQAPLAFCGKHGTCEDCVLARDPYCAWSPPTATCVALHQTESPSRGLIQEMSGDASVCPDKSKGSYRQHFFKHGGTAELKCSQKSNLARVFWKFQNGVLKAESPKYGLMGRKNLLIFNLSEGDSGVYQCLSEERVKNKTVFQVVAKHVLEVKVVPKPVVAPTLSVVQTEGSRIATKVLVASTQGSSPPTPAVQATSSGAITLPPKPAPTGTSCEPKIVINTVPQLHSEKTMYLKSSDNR
As to the kind of experiment: competition ELISA on plate-coated human CD100-Fc; unlabelled antibody titrated first, competitor biotinylated MAb 67 detected with streptavidin-HRP. How it is done:
For the ELISA protocol, an ELISA plate was coated with CD100-Fc. […] The antibodies were allowed to bind to CD100 and unbound antibody was wash away. Biotinylated MAb 67 was added. Biotinylated MAb 67 bound to CD100 was detected using Streptavidin-HRP.

The next test has as its target T2, marmoset CD100 (marmoset, UniProt A0A8I3W811 22-734).
T2 construct: also called marmCD100; monkey CD100
T2 sequence: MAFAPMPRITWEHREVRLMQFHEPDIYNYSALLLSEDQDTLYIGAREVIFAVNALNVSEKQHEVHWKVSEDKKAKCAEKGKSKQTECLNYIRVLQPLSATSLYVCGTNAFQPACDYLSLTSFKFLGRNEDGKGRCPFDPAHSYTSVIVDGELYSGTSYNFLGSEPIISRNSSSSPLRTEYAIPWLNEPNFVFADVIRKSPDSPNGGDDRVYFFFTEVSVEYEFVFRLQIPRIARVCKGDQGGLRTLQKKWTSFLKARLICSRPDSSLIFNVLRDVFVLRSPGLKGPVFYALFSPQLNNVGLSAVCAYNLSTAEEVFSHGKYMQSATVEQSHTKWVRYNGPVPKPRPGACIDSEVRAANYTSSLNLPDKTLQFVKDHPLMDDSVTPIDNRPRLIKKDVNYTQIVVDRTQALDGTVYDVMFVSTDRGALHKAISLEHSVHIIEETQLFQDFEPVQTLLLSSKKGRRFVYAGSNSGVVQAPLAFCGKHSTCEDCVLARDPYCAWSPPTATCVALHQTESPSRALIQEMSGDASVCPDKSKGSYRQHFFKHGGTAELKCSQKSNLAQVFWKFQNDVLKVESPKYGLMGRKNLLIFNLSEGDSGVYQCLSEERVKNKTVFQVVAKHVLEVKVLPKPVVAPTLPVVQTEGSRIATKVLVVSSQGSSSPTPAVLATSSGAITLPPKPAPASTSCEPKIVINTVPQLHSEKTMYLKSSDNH
Kind of test: BIACORE surface plasmon resonance. How it is done: (§1) Binding affinities of anti-CD100 MAbs were determined using BIACORE® surface plasmon resonance technology.

In test [1] the target is T3, mouse CD100 (mouse, UniProt O09126 24-733, limits assumed).
T3 construct: also called murine CD100; muCD100
T3 sequence: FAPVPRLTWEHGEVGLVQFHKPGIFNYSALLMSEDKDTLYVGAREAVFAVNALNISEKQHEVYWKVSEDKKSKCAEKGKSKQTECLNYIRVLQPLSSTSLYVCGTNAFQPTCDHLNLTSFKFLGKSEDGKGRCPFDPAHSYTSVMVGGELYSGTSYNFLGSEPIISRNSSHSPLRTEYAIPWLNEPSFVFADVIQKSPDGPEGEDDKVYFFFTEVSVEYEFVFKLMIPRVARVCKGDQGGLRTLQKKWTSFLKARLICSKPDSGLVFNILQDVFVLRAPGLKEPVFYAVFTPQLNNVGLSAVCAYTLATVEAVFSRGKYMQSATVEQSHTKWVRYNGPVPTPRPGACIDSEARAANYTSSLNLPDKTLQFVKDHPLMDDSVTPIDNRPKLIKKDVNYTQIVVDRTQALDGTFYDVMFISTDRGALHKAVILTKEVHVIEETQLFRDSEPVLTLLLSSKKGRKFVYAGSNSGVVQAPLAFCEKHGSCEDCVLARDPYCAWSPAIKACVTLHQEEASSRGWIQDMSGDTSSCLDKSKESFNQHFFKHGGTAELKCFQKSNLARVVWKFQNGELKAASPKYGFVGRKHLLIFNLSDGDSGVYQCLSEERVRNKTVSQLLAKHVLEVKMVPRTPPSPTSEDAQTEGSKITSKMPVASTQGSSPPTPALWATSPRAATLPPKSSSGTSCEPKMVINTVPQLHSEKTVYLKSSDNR
As to the kind of experiment: BIACORE surface plasmon resonance. How it is done: as §1

The target of test [2] is T4, human CD100 (human, UniProt Q92854 22-734, limits assumed).
T4 construct: also called huCD100; SEMA4D
T4 sequence: T1 sequence
As to the kind of experiment: BIACORE surface plasmon resonance. How it is done:
as §1

Test [3] has as its target T3, mouse CD100. As to the kind of experiment: BIACORE surface plasmon resonance. This is another data set of the same source.
Test [4] addresses T4, human CD100. As to the kind of experiment: BIACORE surface plasmon resonance. The source holds these as a separate data set.

Read-outs that look alike come from different tables or passages of the source.

B1: MAb 2503 (antibody, V domains shown)
VH: QVQLVQSGAEVKKPGSSVKVSCKASGYSFSDYYMHWVRQAPGQGLEWMGQINPTTGGASYNQKFKGKATITVDKSTSTAYMELSSLRSEDTAVYYCARYYYGRHFDVWGQGTTVTVSS
VL: DIVMTQSPDSLAVSLGERATINCKASQSVDYDGDSYMNWYQQKPGQPPKLLIYAASNLESGVPDRFSGSGSGTDFTLTISSLQAEDVAVYYCQQSNEDPYTFGQGTKLEIK
notes: also called humanized MAb 67; H2160/L553
Turning to B1, the “IC50 (read off the curve)” value with human CD100-Fc was approximately 0.2 nM. The Kd with marmoset CD100 worked out at 2.4 nM; with mouse CD100 [1], 1.5 nM; with human CD100 [2], 5.4 nM.

B2: MAb 67 (antibody, IgG1, V domains shown)
VH: QVQLQQSGPELVKPGASVKISCKASGYSFSDYYMHWVKQSPENSLEWIGQINPTTGGASYNQKFKGKATLTVDKSSSTAYMQLKSLTSEESAVYYCTRYYYGRHFDVWGQGTTVTVSS
VL: DIVMTQSPASLAVSLGQRATISCKASQSVDYDGDSYMNWYQQKPGQPPKLLIYAASNLESGIPARFSGSGSGTDFTLNIHPVEEEDAATYYCQQSNEDPYTFGGGTKLEIK
notes: also called mouse MAb 67; murine MAb 67
For B2, in the test with marmoset CD100, the Kd was found to be 2.7 nM. In other words, the single-digit nanomolar range.

B3: MAb 76 (antibody, IgG2b, V domains shown)
VH: QVQLQQSGAELAKPGASVKMSCKASGYTFTRYWMHWVKQRPGQGLEWIGYINPSTGYSDYNQKFKDKATLTADKSSSTAYMQLSSLTSEDSAVYYCARDPYGWTMDSWGQGTLVTVSS
VL: DIQMTQSPSSLSASLGDTITITCHASQNINVWLSWYQQKPGNIPKLLIYKASNLHTGVPSRFSGSGSGTGFTLTISSLQPEDIATYYCQQGQSYPYTFGGGTKLEIK
notes: also called clone 76-1; 76-1
In the case of B3, the equilibrium dissociation constant (Kd) with mouse CD100 [3] was 0.33 nM; in the test with human CD100 [4], 0.12 nM.
